According to paper doi:10.1101/2020.07.09.195545:
Read-outs that look alike come from different tables or passages of the source.

B1: mutated GTAC-consensus 30 bp (shuffled core) (dsDNA)
DNA 1: GTCGCCACTGCGAGATCCACTGAGAGATCG
DNA 2: CGATCTCTCAGTGGATCTCGCAGTGGCGAC
B2: GTAC-consensus 30 bp (dsDNA)
DNA 1: GTCGCCGTACCGAGATCCGTACAGAGATCG
DNA 2: CGATCTCTGTACGGATCTCGGTACGGCGAC

Assays:
[1] = molecular target: T1, rLCRF-SBP (Chlamydomonas reinhardtii, UniProt A0A2K3E5K7 866-1032); test: EMSA
[2] = molecular target: T1, rLCRF-SBP; test: EMSA; remark: listed apart in the source

| Binder | binding result [1] | binding result [2] |
| --- | --- | --- |
| B1 | no binding |  |
| B2 |  | binds |
